Measurements from patent US20180023071A1 (PRONASCI, published 2018).
Bridges are numbered along the chain shown (N, C = ends). Where no end group is shown, it is not given here.

Target: human Low Density Lipoprotein receptor (hLDL-R) (human, UniProt P01130 22-860)
Experiment: cell-based or functional assay

Chain of human Low Density Lipoprotein receptor (hLDL-R) (P01130 22-860): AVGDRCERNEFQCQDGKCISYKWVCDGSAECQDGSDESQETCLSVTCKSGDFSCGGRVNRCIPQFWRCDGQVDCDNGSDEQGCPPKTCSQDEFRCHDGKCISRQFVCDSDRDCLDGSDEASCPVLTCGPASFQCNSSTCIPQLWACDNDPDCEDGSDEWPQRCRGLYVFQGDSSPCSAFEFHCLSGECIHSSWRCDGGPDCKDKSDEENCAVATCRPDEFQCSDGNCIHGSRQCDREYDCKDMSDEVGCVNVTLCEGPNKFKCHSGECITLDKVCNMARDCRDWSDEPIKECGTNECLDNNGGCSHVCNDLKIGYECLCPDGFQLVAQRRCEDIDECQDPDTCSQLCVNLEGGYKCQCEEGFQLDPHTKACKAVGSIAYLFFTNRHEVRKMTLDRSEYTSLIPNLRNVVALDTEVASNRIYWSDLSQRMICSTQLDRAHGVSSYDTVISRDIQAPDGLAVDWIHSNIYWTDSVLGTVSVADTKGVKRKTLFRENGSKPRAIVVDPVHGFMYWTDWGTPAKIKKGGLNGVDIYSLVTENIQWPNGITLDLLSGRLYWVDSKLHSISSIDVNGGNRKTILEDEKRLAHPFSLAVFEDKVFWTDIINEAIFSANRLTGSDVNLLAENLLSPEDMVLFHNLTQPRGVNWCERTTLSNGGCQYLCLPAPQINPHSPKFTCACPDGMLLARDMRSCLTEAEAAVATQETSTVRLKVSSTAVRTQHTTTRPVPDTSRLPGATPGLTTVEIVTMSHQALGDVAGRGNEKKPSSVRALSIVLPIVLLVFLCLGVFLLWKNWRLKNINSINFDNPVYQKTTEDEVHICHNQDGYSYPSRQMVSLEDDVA

B1: CP3 (Loop-3 peptide), S-S bridged cyclic hPCSK9 365-384 (peptide)
peptide: GEDIIGASSDCSTCFVSQSG
modifications: disulfide 11-14
- LDL-R level in HepG2 cells (western blot, relative to TR), CP3 at 50 µM: ~3.5 fold
